These results are taken from paper PMC4477857 (The Journal of Cell Biology, 2015).

This test has as its target T1, purified recombinant STIL (human, UniProt Q15468 1-1287).
T1 sequence (looked up): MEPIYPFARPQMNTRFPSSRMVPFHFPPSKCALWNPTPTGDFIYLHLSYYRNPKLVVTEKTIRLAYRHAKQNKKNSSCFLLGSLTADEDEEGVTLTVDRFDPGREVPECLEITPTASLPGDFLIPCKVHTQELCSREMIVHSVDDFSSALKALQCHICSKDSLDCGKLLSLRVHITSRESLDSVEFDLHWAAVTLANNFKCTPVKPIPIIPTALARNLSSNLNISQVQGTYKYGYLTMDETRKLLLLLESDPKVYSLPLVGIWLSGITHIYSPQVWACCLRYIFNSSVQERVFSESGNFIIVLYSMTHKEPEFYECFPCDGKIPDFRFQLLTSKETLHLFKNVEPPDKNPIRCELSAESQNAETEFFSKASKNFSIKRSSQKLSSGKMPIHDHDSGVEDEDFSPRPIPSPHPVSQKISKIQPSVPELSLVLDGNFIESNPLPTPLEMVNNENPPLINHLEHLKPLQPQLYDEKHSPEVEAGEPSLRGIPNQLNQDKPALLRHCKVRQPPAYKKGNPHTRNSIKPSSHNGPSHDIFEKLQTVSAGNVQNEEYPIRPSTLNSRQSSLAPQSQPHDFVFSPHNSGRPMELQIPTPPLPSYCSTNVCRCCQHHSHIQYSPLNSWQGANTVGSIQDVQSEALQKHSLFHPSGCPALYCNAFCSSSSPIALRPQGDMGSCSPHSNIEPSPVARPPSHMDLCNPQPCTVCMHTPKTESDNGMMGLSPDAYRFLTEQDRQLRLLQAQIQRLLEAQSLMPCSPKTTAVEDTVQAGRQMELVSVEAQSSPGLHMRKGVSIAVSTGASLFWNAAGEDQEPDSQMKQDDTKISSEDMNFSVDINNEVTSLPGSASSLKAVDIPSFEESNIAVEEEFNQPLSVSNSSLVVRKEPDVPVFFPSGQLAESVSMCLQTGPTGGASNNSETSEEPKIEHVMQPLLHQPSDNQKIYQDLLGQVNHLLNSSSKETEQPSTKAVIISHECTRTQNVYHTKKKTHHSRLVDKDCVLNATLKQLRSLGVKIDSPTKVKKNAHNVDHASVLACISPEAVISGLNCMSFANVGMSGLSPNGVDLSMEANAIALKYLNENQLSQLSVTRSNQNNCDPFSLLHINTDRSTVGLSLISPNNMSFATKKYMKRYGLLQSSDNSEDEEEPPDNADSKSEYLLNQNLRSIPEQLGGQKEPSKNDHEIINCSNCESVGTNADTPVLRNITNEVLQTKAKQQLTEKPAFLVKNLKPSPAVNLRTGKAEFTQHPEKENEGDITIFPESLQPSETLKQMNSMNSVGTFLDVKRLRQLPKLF
In words: pull-down.

B1: GST-hPlk4 (enzyme, human, UniProt O00444 1-970, looked up)
chain: MATCIGEKIEDFKVGNLLGKGSFAGVYRAESIHTGLEVAIKMIDKKAMYKAGMVQRVQNEVKIHCQLKHPSILELYNYFEDSNYVYLVLEMCHNGEMNRYLKNRVKPFSENEARHFMHQIITGMLYLHSHGILHRDLTLSNLLLTRNMNIKIADFGLATQLKMPHEKHYTLCGTPNYISPEIATRSAHGLESDVWSLGCMFYTLLIGRPPFDTDTVKNTLNKVVLADYEMPSFLSIEAKDLIHQLLRRNPADRLSLSSVLDHPFMSRNSSTKSKDLGTVEDSIDSGHATISTAITASSSTSISGSLFDKRRLLIGQPLPNKMTVFPKNKSSTDFSSSGDGNSFYTQWGNQETSNSGRGRVIQDAEERPHSRYLRRAYSSDRSGTSNSQSQAKTYTMERCHSAEMLSVSKRSGGGENEERYSPTDNNANIFNFFKEKTSSSSGSFERPDNNQALSNHLCPGKTPFPFADPTPQTETVQQWFGNLQINAHLRKTTEYDSISPNRDFQGHPDLQKDTSKNAWTDTKVKKNSDASDNAHSVKQQNTMKYMTALHSKPEIIQQECVFGSDPLSEQSKTRGMEPPWGYQNRTLRSITSPLVAHRLKPIRQKTKKAVVSILDSEEVCVELVKEYASQEYVKEVLQISSDGNTITIYYPNGGRGFPLADRPPSPTDNISRYSFDNLPEKYWRKYQYASRFVQLVRSKSPKITYFTRYAKCILMENSPGADFEVWFYDGVKIHKTEDFIQVIEKTGKSYTLKSESEVNSLKEEIKMYMDHANEGHRICLALESIISEEERKTRSAPFFPIIIGRKPGSTSSPKALSPPPSVDSNYPTRERASFNRMVMHSAASPTQAPILNPSMVTNEGLGLTTTASGTDISSNSLKDCLPKSAQLLKSVFVKNVGWATQLTSGAVWVQFNDGSQLVVQAGVSSISYTSPNGQTTRYGENEKLPDYIKQKLQCLSSILLMFSNPTPNFH
B1: the binding result is reported as “binds”.
